Measured values: PMC9482650, “Quantitative fragmentomics allow affinity mapping of interactomes” (Nature Communications, 2022)

Tests used:
Experiment in all cases: holdup assay
Parameters in all cases: key: below the threshold = too weak to quantify, mostly under pKd 3.1 to 4
DLG3_1, Q92796 = molecular target: T1, DLG3_1, Q92796
T1 sequence (Q92796 125-227, limits assumed, looked up): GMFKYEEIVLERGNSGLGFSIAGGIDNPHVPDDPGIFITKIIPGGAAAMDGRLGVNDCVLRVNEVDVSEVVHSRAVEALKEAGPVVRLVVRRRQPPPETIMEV

LIN7B, Q9HAP6 = molecular target: T2, LIN7B, Q9HAP6
T2 sequence (Q9HAP6 88-185, limits assumed, looked up): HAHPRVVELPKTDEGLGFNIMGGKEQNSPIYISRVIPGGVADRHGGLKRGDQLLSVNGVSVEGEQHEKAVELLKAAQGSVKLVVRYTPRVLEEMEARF

MAGI2_6, Q86UL8 = molecular target: MAGI2_6, Q86UL8
NHERF4_4, Q86UT5 = molecular target: NHERF4_4, Q86UT5
TJP1_3, Q07157 = molecular target: TJP1_3, Q07157
GIPC2, Q8TF65 = molecular target: GIPC2, Q8TF65
DLG3_2, Q92796 = molecular target: T3, DLG3_2, Q92796
T3 sequence (Q92796 221-321, limits assumed, looked up): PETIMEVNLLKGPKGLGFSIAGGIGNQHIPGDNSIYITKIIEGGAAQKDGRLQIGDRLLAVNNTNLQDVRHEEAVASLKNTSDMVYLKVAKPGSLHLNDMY

PTPN13_1, Q12923 = molecular target: T4, PTPN13_1, Q12923
T4 sequence (Q12923 1088-1188, limits assumed, looked up): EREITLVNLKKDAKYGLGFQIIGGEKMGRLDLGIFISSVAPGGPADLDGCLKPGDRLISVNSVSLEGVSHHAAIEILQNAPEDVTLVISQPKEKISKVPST

DLG4_2, P78352 = molecular target: DLG4_2, P78352
MPP2, Q14168 = molecular target: T5, MPP2, Q14168
T5 sequence (Q14168 180-250, limits assumed, looked up): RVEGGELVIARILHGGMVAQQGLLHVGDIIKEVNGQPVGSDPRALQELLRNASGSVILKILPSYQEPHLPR

Inadl_9, Q8NI35 = molecular target: Inadl_9, Q8NI35
MAGI1_1, Q96QZ7 = molecular target: MAGI1_1, Q96QZ7
APBA1_1, Q02410 = molecular target: T6, APBA1_1, Q02410
T6 sequence (Q02410 651-752, limits assumed, looked up): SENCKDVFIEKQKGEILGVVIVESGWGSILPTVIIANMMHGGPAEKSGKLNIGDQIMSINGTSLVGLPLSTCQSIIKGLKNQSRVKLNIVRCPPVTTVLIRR

Inadl_8, Q8NI35 = molecular target: Inadl_8, Q8NI35
TX1BP3, O14907 = molecular target: T7, TX1BP3, O14907
T7 sequence (O14907 10-122, limits assumed, looked up): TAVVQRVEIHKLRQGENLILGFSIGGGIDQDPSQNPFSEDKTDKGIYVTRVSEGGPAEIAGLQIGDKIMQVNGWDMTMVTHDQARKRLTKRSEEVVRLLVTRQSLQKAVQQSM

DLG3_3, Q92796 = molecular target: T8, DLG3_3, Q92796
T8 sequence (Q92796 374-475, limits assumed, looked up): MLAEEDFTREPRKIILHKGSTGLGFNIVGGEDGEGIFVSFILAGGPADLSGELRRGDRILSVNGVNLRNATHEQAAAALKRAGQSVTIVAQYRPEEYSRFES

MAGI2_4, Q86UL8 = molecular target: MAGI2_4, Q86UL8
SNTG1, Q9NSN8 = molecular target: T9, SNTG1, Q9NSN8
T9 sequence (Q9NSN8 52-150, limits assumed, looked up): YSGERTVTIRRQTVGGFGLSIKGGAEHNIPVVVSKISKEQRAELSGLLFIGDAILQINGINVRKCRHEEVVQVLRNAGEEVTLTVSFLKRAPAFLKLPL

NHERF3_3, Q5T2W1 = molecular target: T10, NHERF3_3, Q5T2W1
T10 sequence (Q5T2W1 238-333, limits assumed, looked up): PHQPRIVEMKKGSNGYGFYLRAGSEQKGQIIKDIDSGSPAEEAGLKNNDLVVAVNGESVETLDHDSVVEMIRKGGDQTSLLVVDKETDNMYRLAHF

GRIP1_2, Q9Y3R0 = molecular target: T11, GRIP1_2, Q9Y3R0
T11 sequence (Q9Y3R0 145-248, limits assumed, looked up): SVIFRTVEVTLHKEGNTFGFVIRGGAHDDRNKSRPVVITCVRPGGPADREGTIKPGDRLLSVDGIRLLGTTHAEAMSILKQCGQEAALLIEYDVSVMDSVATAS

FRMPD2_3, Q68DX3 = molecular target: FRMPD2_3, Q68DX3
Inadl_3, Q8NI35 = molecular target: Inadl_3, Q8NI35
LNX1_1, Q8TBB1 = molecular target: LNX1_1, Q8TBB1
CASK, O14936 = molecular target: CASK, O14936
LNX1_2, Q8TBB1 = molecular target: LNX1_2, Q8TBB1
TJP3_3, O95049 = molecular target: T12, TJP3_3, O95049
T12 sequence (O95049 375-456, limits assumed, looked up): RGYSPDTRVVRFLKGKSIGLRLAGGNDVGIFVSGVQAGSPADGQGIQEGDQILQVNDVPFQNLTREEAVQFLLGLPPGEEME

[1] = plain residues with an end cap or a label only (N-terminal biotin on a linker: none)
[2] = plain residues with an end cap or a label only (N-terminal biotin on a linker: ttds)

Chain of MAGI1_1, Q96QZ7 (Q96QZ7 1-106): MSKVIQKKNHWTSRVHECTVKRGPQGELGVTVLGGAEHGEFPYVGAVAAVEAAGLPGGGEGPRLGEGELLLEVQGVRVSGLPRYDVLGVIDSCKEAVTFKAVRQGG
Chain of MAGI2_4, Q86UL8 (Q86UL8 772-865): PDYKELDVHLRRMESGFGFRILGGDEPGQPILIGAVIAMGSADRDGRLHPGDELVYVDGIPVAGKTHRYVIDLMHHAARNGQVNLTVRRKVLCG
Chain of Inadl_9, Q8NI35 (Q8NI35 1530-1615): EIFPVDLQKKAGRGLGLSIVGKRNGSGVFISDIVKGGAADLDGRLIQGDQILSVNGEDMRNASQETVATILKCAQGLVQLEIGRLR
Chain of GIPC2, Q8TF65 (Q8TF65 112-203): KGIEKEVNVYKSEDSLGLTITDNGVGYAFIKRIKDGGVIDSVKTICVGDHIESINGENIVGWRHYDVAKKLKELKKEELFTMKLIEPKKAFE
Chain of DLG4_2, P78352 (P78352 155-259): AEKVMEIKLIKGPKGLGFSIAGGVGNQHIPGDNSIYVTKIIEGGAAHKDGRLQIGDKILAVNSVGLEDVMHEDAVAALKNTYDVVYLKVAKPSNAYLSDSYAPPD
Chain of NHERF4_4, Q86UT5 (Q86UT5 464-550): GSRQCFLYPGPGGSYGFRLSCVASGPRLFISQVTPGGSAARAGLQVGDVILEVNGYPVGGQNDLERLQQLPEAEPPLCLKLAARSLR
Chain of FRMPD2_3, Q68DX3 (Q68DX3 1073-1166): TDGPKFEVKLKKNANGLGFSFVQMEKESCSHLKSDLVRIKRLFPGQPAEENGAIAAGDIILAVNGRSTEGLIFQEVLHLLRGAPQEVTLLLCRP
Chain of LNX1_2, Q8TBB1 (Q8TBB1 371-470): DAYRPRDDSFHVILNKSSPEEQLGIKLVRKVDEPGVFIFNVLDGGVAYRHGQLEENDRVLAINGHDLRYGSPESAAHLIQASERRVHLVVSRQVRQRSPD
Chain of CASK, O14936 (O14936 487-570): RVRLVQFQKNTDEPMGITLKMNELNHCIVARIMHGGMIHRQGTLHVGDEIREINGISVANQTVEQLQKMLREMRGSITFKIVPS
Chain of Inadl_3, Q8NI35 (Q8NI35 359-469): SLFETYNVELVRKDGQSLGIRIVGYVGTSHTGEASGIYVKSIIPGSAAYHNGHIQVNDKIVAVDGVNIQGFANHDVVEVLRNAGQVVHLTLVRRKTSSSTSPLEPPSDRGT
Chain of Inadl_8, Q8NI35 (Q8NI35 1425-1530): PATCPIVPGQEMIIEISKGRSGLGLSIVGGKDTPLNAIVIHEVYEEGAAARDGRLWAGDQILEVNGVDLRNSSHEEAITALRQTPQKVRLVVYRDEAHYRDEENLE
Chain of LNX1_1, Q8TBB1 (Q8TBB1 261-371): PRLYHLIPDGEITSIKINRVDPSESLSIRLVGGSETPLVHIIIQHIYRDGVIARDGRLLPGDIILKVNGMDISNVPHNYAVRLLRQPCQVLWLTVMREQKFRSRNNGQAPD
Chain of TJP1_3, Q07157 (Q07157 416-512): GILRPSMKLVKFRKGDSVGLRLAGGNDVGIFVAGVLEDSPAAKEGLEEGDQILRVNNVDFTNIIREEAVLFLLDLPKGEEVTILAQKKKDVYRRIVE
Chain of MAGI2_6, Q86UL8 (Q86UL8 1141-1229): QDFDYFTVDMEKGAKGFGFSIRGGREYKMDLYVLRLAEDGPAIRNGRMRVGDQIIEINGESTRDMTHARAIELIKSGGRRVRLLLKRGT

DSKPPLPPDEWV [MERS-E, K9N5R3]
pKd (DLG3_1, Q92796; [1]): below the threshold
pKd (LIN7B, Q9HAP6; [1]): below the threshold
pKd (MAGI2_6, Q86UL8; [1]): 4.75
pKd (NHERF4_4, Q86UT5; [1]): below the threshold
pKd (TJP1_3, Q07157; [1]): 3.56
pKd (GIPC2, Q8TF65; [1]): below the threshold
pKd (DLG3_2, Q92796; [1]): 3.96
pKd (PTPN13_1, Q12923; [1]): below the threshold
pKd (DLG4_2, P78352; [1]): 3.59
pKd (MPP2, Q14168; [1]): below the threshold
pKd (Inadl_9, Q8NI35; [1]): 3.57
pKd (MAGI1_1, Q96QZ7; [1]): below the threshold
pKd (APBA1_1, Q02410; [1]): 3.53
pKd (Inadl_8, Q8NI35; [1]): 3.55
pKd (TX1BP3, O14907; [1]): 3.7
pKd (DLG3_3, Q92796; [1]): 3.58
pKd (MAGI2_4, Q86UL8; [1]): 3.73
pKd (SNTG1, Q9NSN8; [1]): 3.87
pKd (NHERF3_3, Q5T2W1; [1]): below the threshold
pKd (GRIP1_2, Q9Y3R0; [1]): 3.62
pKd (FRMPD2_3, Q68DX3; [1]): 3.53
pKd (Inadl_3, Q8NI35; [1]): 3.55
pKd (LNX1_1, Q8TBB1; [1]): below the threshold
pKd (CASK, O14936; [1]): 3.48
pKd (LNX1_2, Q8TBB1; [1]): below the threshold
pKd (TJP3_3, O95049; [1]): 4.83

GGPKEEESPV [SLC16A1, P53985]
pKd (DLG3_1, Q92796; [2]): below the threshold
pKd (LIN7B, Q9HAP6; [2]): below the threshold
pKd (MAGI2_6, Q86UL8; [2]): below the threshold
pKd (NHERF4_4, Q86UT5; [2]): below the threshold
pKd (TJP1_3, Q07157; [2]): below the threshold
pKd (GIPC2, Q8TF65; [2]): below the threshold
pKd (DLG3_2, Q92796; [2]): below the threshold
pKd (PTPN13_1, Q12923; [2]): below the threshold
pKd (DLG4_2, P78352; [2]): 3.5
pKd (MPP2, Q14168; [2]): below the threshold
pKd (Inadl_9, Q8NI35; [2]): below the threshold
pKd (MAGI1_1, Q96QZ7; [2]): below the threshold
pKd (APBA1_1, Q02410; [2]): below the threshold
pKd (Inadl_8, Q8NI35; [2]): below the threshold
pKd (TX1BP3, O14907; [2]): below the threshold
pKd (DLG3_3, Q92796; [2]): below the threshold
pKd (MAGI2_4, Q86UL8; [2]): below the threshold
pKd (SNTG1, Q9NSN8; [2]): 3.99
pKd (NHERF3_3, Q5T2W1; [2]): below the threshold
pKd (GRIP1_2, Q9Y3R0; [2]): below the threshold
pKd (FRMPD2_3, Q68DX3; [2]): below the threshold
pKd (Inadl_3, Q8NI35; [2]): below the threshold
pKd (LNX1_1, Q8TBB1; [2]): below the threshold
pKd (CASK, O14936; [2]): below the threshold
pKd (LNX1_2, Q8TBB1; [2]): below the threshold
pKd (TJP3_3, O95049; [2]): below the threshold
